The values that follow come from FireProtDB (doi:10.1016/s0167-4838(99)00132-6).

For this data set the following is noted: Oryctolagus cuniculus; pH 6; Thermal; DSC; KH2PO4-KOH 10 mM; reversible: no.

Sequence of Glyceraldehyde-3-phosphate dehydrogenase wild type, P46406 (P46406 whole entry): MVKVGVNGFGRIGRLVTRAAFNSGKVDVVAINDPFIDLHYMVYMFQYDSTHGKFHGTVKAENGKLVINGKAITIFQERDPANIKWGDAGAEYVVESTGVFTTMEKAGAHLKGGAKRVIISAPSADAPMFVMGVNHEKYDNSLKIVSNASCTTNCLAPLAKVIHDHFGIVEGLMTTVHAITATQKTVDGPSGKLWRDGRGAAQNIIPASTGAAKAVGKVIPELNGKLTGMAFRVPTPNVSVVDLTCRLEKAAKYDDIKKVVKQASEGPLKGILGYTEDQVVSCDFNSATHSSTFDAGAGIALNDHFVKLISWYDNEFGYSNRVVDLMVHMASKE

With “Glyceraldehyde-3-phosphate dehydrogenase wild type, P46406”, the Tm came to 68.9 °C and the “unfolding enthalpy (calorimetric)” value was 693 kcal/mol.
